From paper PMC11059090

How the values were obtained:
[1] = system: purified whole IgG from rabbit serum (polyclonal) (rabbit); assay: ITC; details: unlabeled IgG; 80 uM aptamer into 2.5 uM IgG; ITC: PBS (10 mM phosphate, 2.7 mM KCl, 137 mM NaCl, pH 7.4), 25 C; FRET: Ex 550 nm, Em 620/670 nm, titration buffer not stated
[2] = system: rabbit anti-human IgG Fc-specific monoclonal (RAH) (rabbit); assay: ITC; details: unlabeled IgG; 80 uM aptamer into 2.5 uM IgG; ITC: PBS (10 mM phosphate, 2.7 mM KCl, 137 mM NaCl, pH 7.4), 25 C; FRET: Ex 550 nm, Em 620/670 nm, titration buffer not stated
[3] = system: ALEXA-594-labeled rabbit anti-human IgG Fc-specific monoclonal (594-RAH) (rabbit); assay: FRET titration; details: apparent Kd, ITC: PBS (10 mM phosphate, 2.7 mM KCl, 137 mM NaCl, pH 7.4), 25 C, FRET: Ex 550 nm, Em 620/670 nm, titration buffer not stated

Sequence: CCAACCACACATCCTTCCATCGACATGGACCCACCGTTCC [AptaShield DNA aptamer]
- Kd [1]: 890 nM
- Kd [2]: 224 nM
- Kd ([3]; RAH-594 titrated into 200 nM aptamer): 95 nM
- Kd ([3]; aptamer titrated into 200 nM RAH-594): 44.5 nM
